Results taken from US4757012A, “Ascorbic acid intermediates and process enzymes” (Genentech, Inc., priority 1984, dated 1988).

Columns and labels:
[1] = substrate: NC(=O)C1=CN([C@@H]2O[C@H](COP(=O)(O)OP(=O)(O)OC[C@H]3O[C@@H](n4cnc5c(N)ncnc54)[C@H](OP(=O)(O)O)[C@@H]3O)[C@@H](O)[C@H]2O)C=CC1; test: 2,5-DKG reductase kinetic / substrate specificity assay with purified enzyme; format: biochemical, Corynebacterium sp. ATCC 31090; settings: other: cofactor NADPH, 150 mM sodium phosphate buffer, pH 6.4, 25° C.
Text: (§1) The following assay conditions were used to determine kinetic parameters: […]

[2] = substrate: O=C(O)C(=O)[C@@H](O)[C@H](O)C(=O)CO; test: as above; format: biochemical, Corynebacterium sp. ATCC 31090; settings: other: substrate 2,5-DKG, 150 mM sodium phosphate buffer, pH 6.4, 25° C.
Text: as §1

B1: 2,5-DKG reductase (Corynebacterium sp. ATCC 31090) (protein)
chain: MTVPSIVLNDGNSIPQLGYGVFKVPPADTQRAVEEALEVGYRHIDTAAIYGNEEGVGAAIAASGIARDDLFITTKLWNDRHDGDEPAAAIAESLAKLALDQVDLYLVHWPTPAADNYVHAWEKMIELRAAGLTRSIGVSNHLVPHLERIVAATGVVPAVNQIELHPAYQQREITDWAAAHDVKIESWGPLGQGKYDLFGAEPVTAAAAAHGKTPAQAVLRWHLQKGFVVFPKSVRRERLEENLDVFDFDLTDTEIAAIDAMDPGDGSGRVSAHPDEVD
notes: made in house; host or cells: Corynebacterium sp; ATCC 31090 (natural producer, native enzyme purified from cell paste, not recombinant)
In the case of B1, the Km [1] is reported as 0.0337 mM and the Km [2] is reported as 15.5 mM.
